Results: paper PMC7105484, “Crystal structures of REF6 and its complex with DNA reveal diverse recognition mechanisms” (Cell Discovery, 2020)

How the values were obtained:
REF6 ZnF1-4 WT [1] = molecular target: T1, REF6 ZnF1-4 WT (Arabidopsis thaliana, UniProt Q9STM3 1223-1360); test: MST; MST: 20 mM HEPES pH 7.3, 150 mM NaCl, 0.2 mM TCEP, 0.5% CA-630, 25 C; EMSA: 30 uM protein, 10 uM dsDNA, 20 mM Tris pH 8.0, 100 mM NaCl, 2.5 mM MgCl2, 0.1% CA-630, 10% glycerol, 1 uM ZnSO4, 1 mM DTT, 4 C; settings: protein: recombinant, tags: His6-MBP or GST tag, TEV-cleavable (cleaved when necessary)
T1 sequence: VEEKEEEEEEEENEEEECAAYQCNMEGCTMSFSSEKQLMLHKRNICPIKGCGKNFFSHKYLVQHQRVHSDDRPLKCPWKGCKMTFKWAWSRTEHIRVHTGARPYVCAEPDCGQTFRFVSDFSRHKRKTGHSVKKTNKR

REF6 ZnF1-4 WT [2] = molecular target: T1, REF6 ZnF1-4 WT; test: EMSA; MST: 20 mM HEPES pH 7.3, 150 mM NaCl, 0.2 mM TCEP, 0.5% CA-630, 25 C; EMSA: 30 uM protein, 10 uM dsDNA, 20 mM Tris pH 8.0, 100 mM NaCl, 2.5 mM MgCl2, 0.1% CA-630, 10% glycerol, 1 uM ZnSO4, 1 mM DTT, 4 C; settings: protein: recombinant, tags: His6-MBP or GST tag, TEV-cleavable (cleaved when necessary)
REF6 N1276F = molecular target: T2, REF6 N1276F (Arabidopsis thaliana, UniProt Q9STM3 1223-1360, N1276F); test: MST; MST: 20 mM HEPES pH 7.3, 150 mM NaCl, 0.2 mM TCEP, 0.5% CA-630, 25 C; EMSA: 30 uM protein, 10 uM dsDNA, 20 mM Tris pH 8.0, 100 mM NaCl, 2.5 mM MgCl2, 0.1% CA-630, 10% glycerol, 1 uM ZnSO4, 1 mM DTT, 4 C; settings: protein: recombinant; tags: His6-MBP or GST, TEV-cleavable; label: FAM in MST
T2 sequence: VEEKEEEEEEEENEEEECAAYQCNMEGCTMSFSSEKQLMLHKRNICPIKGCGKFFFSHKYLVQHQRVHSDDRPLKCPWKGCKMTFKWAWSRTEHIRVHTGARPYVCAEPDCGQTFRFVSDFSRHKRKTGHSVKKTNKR

REF6 ZnF1-4 WT [3] = molecular target: T1, REF6 ZnF1-4 WT; test: MST; Hill coefficient 1.9; MST: 20 mM HEPES pH 7.3, 150 mM NaCl, 0.2 mM TCEP, 0.5% CA-630, 25 C; EMSA: 30 uM protein, 10 uM dsDNA, 20 mM Tris pH 8.0, 100 mM NaCl, 2.5 mM MgCl2, 0.1% CA-630, 10% glycerol, 1 uM ZnSO4, 1 mM DTT, 4 C; settings: protein: recombinant; tags: His6-MBP or GST tag, TEV-cleavable (cleaved when necessary); label: FAM in MST
[4] = molecular target: the molecule itself; test: SEC; analytical gel filtration, Superdex 200 10/300 GL, 5.0 mg mL^−1, no DNA; 20 mM HEPES pH 7.3, 500 mM NaCl, 2 mM β-mercaptoethanol

B1: m12 (G9A) (dsDNA)
DNA 1: CTTTCTCTATTTTGTC
DNA 2: GGACAAAATAGAGAAA
Kd (REF6 ZnF1-4 WT [1]; label: FAM, 5' overhang 1 nt on both strands (as m5)): 4.5 µM

B2: CUC2-4 (dsDNA)
DNA 1: TCCCTCTGTGCACGC
DNA 2: GCGTGCACAGAGGGA
binding result (REF6 ZnF1-4 WT [2]; label: FAM in MST): binds

B3: CUC1-5 (dsDNA)
DNA 1: TTTCTCTGCTCAAAT
DNA 2: ATTTGAGCAGAGAAA
binding result (REF6 ZnF1-4 WT [2]; label: FAM in MST): binds

B4: CUC1-3 (dsDNA)
DNA 1: GGACTCTGTTTTAGA
DNA 2: TCTAAAACAGAGTCC
Kd (REF6 ZnF1-4 WT [1]; label: FAM in MST): 1 µM

B5: CUC1-3+4 (dsDNA)
DNA 1: TCTAAAACAGAGTCCTCCTTACTCTGTTTGTAA
DNA 2: TTACAAACAGAGTAAGGAGGACTCTGTTTTAGA
binding signal (REF6 N1276F): 2.5 fold lower affinity than WT | binding signal (REF6 ZnF1-4 WT [3]): 5 fold higher affinity than CUC1-3 (13-fold than CUC1-4)

B6: CUC2-2 (dsDNA)
DNA 1: TCTCTCTGTCTTTTC
DNA 2: GAAAAGACAGAGAGA
binding result (REF6 ZnF1-4 WT [2]): binds

B7: CUC1-4 (dsDNA)
DNA 1: TTACTCTGTTTGTAA
DNA 2: TTACAAACAGAGTAA
Kd (REF6 ZnF1-4 WT [1]; label: FAM in MST): 2.6 µM

B8: CUC2-3 (dsDNA)
DNA 1: TAGCTCTGATAAAAT
DNA 2: ATTTTATCAGAGCTA
binding result (REF6 ZnF1-4 WT [2]): binds

B9: REF6 fragment 1175–1360 (domain or fragment, Arabidopsis thaliana, UniProt Q9STM3 1175-1360, looked up)
chain: DSYMEGPSTRLRVRHQKPSRGSLETKPKKIGKKRSGNASFSRVATEKDVEEKEEEEEEEENEEEECAAYQCNMEGCTMSFSSEKQLMLHKRNICPIKGCGKNFFSHKYLVQHQRVHSDDRPLKCPWKGCKMTFKWAWSRTEHIRVHTGARPYVCAEPDCGQTFRFVSDFSRHKRKTGHSVKKTNKR
notes: source: E. coli BL21 (DE3), purified
stoichiometry N [4]: 2

B10: CUC1-1 (dsDNA)
DNA 1: TTCCTCTGTTCTTAT
DNA 2: ATAAGAACAGAGGAA
binding result (REF6 ZnF1-4 WT [2]; label: FAM in MST): binds

B11: CUC1-2 (dsDNA)
DNA 1: AGACTCTGTTTCAGA
DNA 2: TCTGAAACAGAGTCT
binding result (REF6 ZnF1-4 WT [2]): binds

B12: REF6 (residues 1223–1360) (domain or fragment, Arabidopsis thaliana, UniProt Q9STM3 1223-1360, looked up)
chain: VEEKEEEEEEEENEEEECAAYQCNMEGCTMSFSSEKQLMLHKRNICPIKGCGKNFFSHKYLVQHQRVHSDDRPLKCPWKGCKMTFKWAWSRTEHIRVHTGARPYVCAEPDCGQTFRFVSDFSRHKRKTGHSVKKTNKR
notes: The fusion tag was cleaved with TEV protease 'when necessary'
stoichiometry N [4]: 2

B13: CUC2-1 (dsDNA)
DNA 1: TTGCTCTGTTAGTTC
DNA 2: GAACTAACAGAGCAA
binding result (REF6 ZnF1-4 WT [2]): binds

B14: m5-m9'C (dsDNA)
DNA 1: CTTTCTCTGTTTTGTC
DNA 2: GGACAAAACAGAGAAA
modifications: methylcytosine at position 9 of strand 2 (9'C)
Kd (REF6 ZnF1-4 WT [1]; label: FAM in MST, 5' overhang 1 nt on both strands (as m5)): 5.9 µM

B15: CUC1-6 (dsDNA)
DNA 1: TTGCTCTGTTCGTTC
DNA 2: GAACGAACAGAGCAA
binding result (REF6 ZnF1-4 WT [2]): binds

B16: REF6 fragment 1139–1360 (domain or fragment, Arabidopsis thaliana, UniProt Q9STM3 1139-1360, looked up)
chain: RSTAKRIAKTKTVQSSRDTKGRFLQEFASGKKNEELDSYMEGPSTRLRVRHQKPSRGSLETKPKKIGKKRSGNASFSRVATEKDVEEKEEEEEEEENEEEECAAYQCNMEGCTMSFSSEKQLMLHKRNICPIKGCGKNFFSHKYLVQHQRVHSDDRPLKCPWKGCKMTFKWAWSRTEHIRVHTGARPYVCAEPDCGQTFRFVSDFSRHKRKTGHSVKKTNKR
notes: as for B9
stoichiometry N [4]: 2
